Experimental data from the nanobody polyreactivity screen of Harvey et al. (2022).

experiment: yeast display, Sf9 membrane polyspecificity reagent, FACS + sequencing; frameworks hold sequencing errors
How it was run: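 Genes from sorted yeast were amplified by colony PCR, read by MiSeq 2 × 250 sequencing and filtered on CDR length. These cells carried a synthetic nanobody library in Saccharomyces cerevisiae BJ5465 and were sorted by FACS into low and high (top ~1%) gates on anti-HA and streptavidin fluorescence. Polyreactivity is labelled according to the gate of origin.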

| Sequence | polyreactivity (PSR sort gate) |
| --- | --- |
| QVQLVESGGGLVQAGGSLRLSCAASGFIFRVYAMGWYRQAPGKERELVAAISSSGSSTFYADSVKGRFTISRDNAKNTVYLQMNSLKPEDTAVYYCNAYVRRIVRSYYWGQGTQVTVSS | high polyreactivity |
| QVQLVESGGGLVQAGGSLRLSCAASGFIFRWNTMGWYRQAPGKERELVAAISSRGGSTYYADSVKGRFKISRDNAKNTVYLQMNSLKPEDTAVYYCNAVRGDEYWGQGTQVTVSS | high polyreactivity |
| QVQLVESGGGLVQAGGSLRLSCAASGFIFRWYAMGWYRQAPGKERELVAAISSGATTNYADSVKGRFTISRDNAKNTVYLQMNSLKPEDTAVYYCAAAHSYYGHYYYWGQGTQVTVSS | high polyreactivity |
| QVQLVESGGGLVQAGGSLRLSCAASGFIFRWYAMGWYRQAPGKERELVATITRGGGSTYYADSVKGRFTISRDNAKNTVYLQMNSLKPEDTAVYYCAKSVTGWRGLWYTPRNYYWGQGTQVTVSS | high polyreactivity |
| QVQLVESGGGLVQAGGSLRLSCAASGFIFRYNAMGWYRQAPGKERELVARISSGGSTNYADSVKGRFTISRDNAKNTVYLQMNSLIPEDTAVYYCAVKQYWYIWSGYGYDYWGQGTQVTVSS | high polyreactivity |
| QVQLVESGGGLVQAGGSLRLSCAASGFIFRYYAMGWSRQAPGKERELGAAITISGGSTYYADSVKGRFTISRDNAKNTVKLQMNSLKPEDTAFYYCAADSKFWYLFHGKRYDYWGQGTQGTVSS | high polyreactivity |
| QVQLVESGGGLVQAGGSLRLSCAASGFIFRYYAMGWYRPAPGKERELVAAISGSGGSTYYADSVKGRFTISRDNAKNTVYLQMNSLKPEDTAVYYCNKVVLYGAHYYYWGQGTQVTVSS | high polyreactivity |
| QVQLVESGGGLVQAGGSLRLSCAASGFIFRYYAMGWYRQAPGKEREFVASINWNGGSTSYADSVKGRFTISRDNAKNTVYLQMNSLKPEDTAVSYCAADFQYAIHTDMDYWGHGTQVTVSS | high polyreactivity |
| QVQLVESGGGLVQAGGSLRLSCAASGFIFRYYAMGWYRQAPGKERELVAAISKRGGGTYYADSVKGRFTISRDYAKNTVFLQMNSLKPEDTAVYYCAAGPGRGRSTLGSYYWGQGTQVTVTS | high polyreactivity |
| QVQLVESGGGLVQAGGSLRLSCAASGFIFRYYAMGWYRQAPGKERELVAAISWRGGSTYYADSVKGRFTISRDNAKNTVYLQMNSLKPEDTAVYYCAAERYVDYGYWGQGTQVTVSS | high polyreactivity |
| QVQLVESGGGLVQAGGSLRLSCAASGFIFRYYAMGWYRQAPGKERELVAAITRSGDNTYYADSVKGRFTISRDNAKNTVYLQMNSLKPEDTAVYYCAARDVQYQQALGGDYWGQGTQVTVSS | low polyreactivity |
| QVQLVESGGGLVQAGGSLRLSCAASGFIFRYYAMGWYRQAPGKERELVAAITSRGSSTYYADSVKGRFTISRDNAKNTVYLQMNSLKPEDTAVYYCAARLRGDYVRYYYWGQGTQVTVSS | high polyreactivity |
| QVQLVESGGGLVQAGGSLRLSCAASGFIFRYYAMGWYRQAPGTERELVAAISQSGGSTDYADSVKGRFTISRDTAKNTVYLQMNSLKPVDTAVYYCATRTPYTKRDYWGQGTQVTVSS | high polyreactivity |
| QVQLVESGGGLVQAGGSLRLSCAASGFIFRYYAMGWYRQATGKEREFVAVISSTTGSTYYADSVKGRFTISRDNAKNTVYLQMNSLKPEDTAVYYCAAASRRRRPLKRMDYWGQGTQVTVSS | low polyreactivity |
| QVQLVESGGGLVQAGGSLRLSCAASGFIFRYYAMGWYRQEPGKERELFAAISSTGGSTSYADSVKGRFTISRDNAKNTVYLQMNSLKPEDTAVYYCAADYWIRRRTYGQLYRPYYYWGQGTQVTVSS | high polyreactivity |
| QVQLVESGGGLVQAGGSLRLSCAASGFIFRYYAMRWYRQAPGKERELVATITYGGTSTSYADSVKGRFTISRDNAKNTVYLQMNSLKPEDSAVYYCATDRVSRVRPFWNVWRSNYWGQGTQVTVSS | high polyreactivity |

| Sequence | polyreactivity (PSR sort gate) |
| --- | --- |
| QVQLVESGGGLVQAGGSLRLSCAASGFIFSENAMGLYRPAPGKERELVAAISDAGGSTYYADSVKGRFTISRDNAKNTVYLQMNSLKPEDTAVYYCNAVYHPKGPSGYGYWGQGTQVTVSS | low polyreactivity |
| QVQLVESGGGLVQAGGSLRLSCAASGFIFSFYVMGWYRQAPGKERELVAAISTSGASTYYADSVKGRFTISRDNAKNTVYLQMTSLKPEDTAVYYCNVVYRYGGYNYWGQGTQVTVSS | high polyreactivity |
| QVQLVESGGGLVQAGGSLRLSCAASGFIFSIYAMGWYRQAPGKERELVAAISKSGGRTYYADSVKGRFTISRDNAKNTVYLQMNSLKPEDTAVYYCAVDSYYKYDYWGQGTQVTVSS | high polyreactivity |
| QVQLVESGGGLVQAGGSLRLSCAASGFIFSIYAMGWYRQAPGKERELVAGIDNGGGTYYADSVKGRFTISRDNAKNTVYLQMNSLKPEDTAVYYCAADTYSIGELYDYWGQGTQVTVSS | low polyreactivity |
| QVQLVESGGGLVQAGGSLRLSCAASGFIFSIYAMGWYRQAPGKERELVAGIDNGGGTYYADSVKGRFTISRDNAKNTVYLQMNSLKPEDTAVYYCDLGSTTMDYWGQGTQVTVSS | low polyreactivity |
| QVQLVESGGGLVQAGGSLRLSCAASGFIFSLYAMGRYRQATGKERELVAVITWSDGRTYYADSVKGRFTISRDNAKNTVYLQMNSLKPEDTAVYYCAAADWITEYDYWGQGTQVTVSS | low polyreactivity |
| QVQLVESGGGLVQAGGSLRLSCAASGFIFSLYAMGWYRQAPGKERELVAAISKRGGSTNYADSVKGRFTISRDNAKNNVYLQMNSLKPEDTAVYYCAKARPGFLYDHWGQGTQVTVSS | high polyreactivity |
| QVQLVESGGGLVQAGGSLRLSCAASGFIFSNNAMGWYRQAPGKERELVAAISGRGGSTYYADSVKGRFTISRDNAKNTVYLQMNSLKPEDTAVYYCNALYTYSYSRFDYWGEGTQVTVSS | low polyreactivity |
| QVQLVESGGGLVQAGGSLRLSCAASGFIFSNNAMGWYRQAPGKERELVAAISKSGGGTSYADSVKGRFTISRDNAKNTVYLQMKSLNPEDSGVYYCAARFSQFRVDFWGQGTQVTVSS | high polyreactivity |
| QVQLVESGGGLVQAGGSLRLSCAASGFIFSRNAMGWYRHAPGKERELVAAISLRGGSTYYADSVKGRFTISRDNAKNTVYLQMNSLKPEDTAVYYCAAPLFSGYDYWGQGTQVTVSS | low polyreactivity |
| QVQLVESGGGLVQAGGSLRLSCAASGFIFSRNAMGWYRQAPGKERELVAAISSGGGTDYADSVKGRFTISRDNAKNTVYLQMNSLQPEDTAVYYCAASYFPGWKHSLDDYWGQGTQVTVSS | low polyreactivity |
| QVQLVESGGGLVQAGGSLRLSCAASGFIFSRNTMGWYRQAPGKERELVAAISRGGGSTYYADSVKGRFTISRDNAKNTVYLQMNSLKPEDTAVYYCNTRIVAAGRYDYWGQGTQVTVSS | high polyreactivity |
| QVQLVESGGGLVQAGGSLRLSCAASGFIFSRYAMGWYRQAPGKERELVAAISSRGGSTYYADSVKGRFTISRDNAKNTVYLQMNSLKPEDTAVYYCNVDPRYSLTPPMDYWGQGTQVTVSS | high polyreactivity |
| QVQLVESGGGLVQAGGSLRLSCAASGFIFSRYTMGWYRQAPGKERELVAAISRRGGNTYYADSVKGRFTISRDNGKNTVYLLMNSLKPEDTAVYYFAADSSYFKDEYWGQGTQVTVSS | low polyreactivity |
| QVQLVESGGGLVQAGGSLRLSCAASGFIFSRYVMGWYRQAPGKERELVAVISYRGGSTYYADSVKGRFTISRDNAKNTVYVQMNSLKPEDTAVYYCNADTIPDGEDRYDYWGHGTQVTVSS | low polyreactivity |
| QVQLVESGGGLVQAGGSLRLSCAASGFIFSSYAMGWYRQAPGKEREFVAVISTGGGSTYYADSVKGRFTLSRDNAKNTVYLQMISLKPEDTAVYYCAAKLYDSGGRYWYDYWGQGTQVTVSS | high polyreactivity |
